Experimental data from EP4772535A1 (Chia Tai Tianqing Pharmaceutical Group Co., Ltd., dated 2026).
Where a chain is given by its changes, count along the chain named.

Tests used:
[1] = target: T1, ROR1 naturally expressed on human tumor cell lines (A549, Jeko-1, SW620, PA-1) (human, UniProt Q01973 30-937); experiment: FACS on Jeko-1 cells naturally expressing ROR1
T1 construct: whole, on cells; also called cells expressing ROR1

[2] = target: T2, human ROR1 on stably transfected cells (NCI-H1993-ROR1, MDA-MB-468-ROR1, NCI-H1975-ROR1, 293T-ROR1-NF-kB) (human, UniProt Q01973 30-937); experiment: cell-based or functional assay
T2 sequence (Q01973 30-937 limits assumed): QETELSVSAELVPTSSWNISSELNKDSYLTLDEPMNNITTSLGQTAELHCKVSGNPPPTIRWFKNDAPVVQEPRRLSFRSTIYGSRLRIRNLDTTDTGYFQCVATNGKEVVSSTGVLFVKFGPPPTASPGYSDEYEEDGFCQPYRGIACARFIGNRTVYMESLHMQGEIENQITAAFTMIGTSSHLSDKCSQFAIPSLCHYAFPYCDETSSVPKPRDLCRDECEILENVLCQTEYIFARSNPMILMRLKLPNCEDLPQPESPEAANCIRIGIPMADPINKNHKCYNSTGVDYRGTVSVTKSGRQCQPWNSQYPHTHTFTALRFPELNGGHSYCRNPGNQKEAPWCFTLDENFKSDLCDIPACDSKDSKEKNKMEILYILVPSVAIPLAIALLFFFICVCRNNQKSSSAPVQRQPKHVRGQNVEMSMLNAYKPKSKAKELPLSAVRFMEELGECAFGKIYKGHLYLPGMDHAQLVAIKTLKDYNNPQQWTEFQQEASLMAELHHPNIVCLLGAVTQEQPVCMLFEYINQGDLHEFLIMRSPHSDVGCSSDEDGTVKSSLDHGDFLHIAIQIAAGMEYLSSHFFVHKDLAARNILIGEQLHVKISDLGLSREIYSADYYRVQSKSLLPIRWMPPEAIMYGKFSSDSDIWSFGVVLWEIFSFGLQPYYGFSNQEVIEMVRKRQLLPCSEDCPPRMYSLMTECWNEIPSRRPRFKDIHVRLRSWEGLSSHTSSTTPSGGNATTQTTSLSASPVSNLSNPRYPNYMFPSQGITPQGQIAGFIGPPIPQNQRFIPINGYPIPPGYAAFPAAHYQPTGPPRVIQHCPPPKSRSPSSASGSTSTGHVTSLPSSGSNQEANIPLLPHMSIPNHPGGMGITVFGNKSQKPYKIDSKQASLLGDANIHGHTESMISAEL

[3] = target: T1, ROR1 naturally expressed on human tumor …; experiment: FACS on SW620 cells naturally expressing ROR1
[4] = target: T1, ROR1 naturally expressed on human tumor …; experiment: cell-based or functional assay
[5] = target: T1, ROR1 naturally expressed on human tumor …; experiment: FACS on PA-1 cells naturally expressing ROR1
[6] = target: T3, human/cynomolgus monkey ROR1 protein (Acro Biosystems, Cat. No.: RO1-H522y) (human/cynomolgus monkey, UniProt Q01973 30-403); experiment: SPR (Biacore), antibody captured on anti-hIgG CM5 chip, ROR1 protein as analyte, method of Example 5
T3 construct: Bought SPR analyte
T3 sequence (Q01973 30-403 limits assumed): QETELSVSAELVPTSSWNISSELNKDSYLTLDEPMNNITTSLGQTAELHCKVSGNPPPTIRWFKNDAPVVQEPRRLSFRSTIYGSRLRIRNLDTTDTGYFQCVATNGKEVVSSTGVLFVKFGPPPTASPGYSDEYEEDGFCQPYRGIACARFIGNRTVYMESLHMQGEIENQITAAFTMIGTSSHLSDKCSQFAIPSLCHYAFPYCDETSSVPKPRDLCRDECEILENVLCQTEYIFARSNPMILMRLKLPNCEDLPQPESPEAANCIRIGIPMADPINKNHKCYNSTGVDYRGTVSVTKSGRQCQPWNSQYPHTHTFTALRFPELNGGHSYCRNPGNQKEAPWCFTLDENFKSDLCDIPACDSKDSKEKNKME

[7] = target: T2, human ROR1 on stably transfected cells …; experiment: cell-based or functional assay; remark: listed apart in the source
[8] = target: T1, ROR1 naturally expressed on human tumor …; experiment: FACS on Jeko-1 cells naturally expressing ROR1; remark: listed apart in the source
[9] = target: T1, ROR1 naturally expressed on human tumor …; experiment: FACS on PA-1 cells naturally expressing ROR1; remark: listed apart in the source
[10] = target: T1, ROR1 naturally expressed on human tumor …; experiment: FACS on SW620 cells naturally expressing ROR1; remark: listed apart in the source
[11] = target: T3, human/cynomolgus monkey ROR1 protein …; experiment: SPR (Biacore), antibody captured on anti-hIgG CM5 chip, ROR1 protein as analyte, 1:1 model
[12] = target: T1, ROR1 naturally expressed on human tumor …; experiment: FACS on Jeko-1 cells naturally expressing ROR1; remark: listed apart in the source
[13] = target: T1, ROR1 naturally expressed on human tumor …; experiment: FACS on SW620 cells naturally expressing ROR1; remark: listed apart in the source
[14] = target: T1, ROR1 naturally expressed on human tumor …; experiment: FACS on SW620 cells naturally expressing ROR1; remark: listed apart in the source
[15] = target: T1, ROR1 naturally expressed on human tumor …; experiment: FACS on PA-1 cells naturally expressing ROR1; remark: listed apart in the source
[16] = target: T1, ROR1 naturally expressed on human tumor …; experiment: FACS on A549 cells naturally expressing ROR1
[17] = target: T1, ROR1 naturally expressed on human tumor …; experiment: FACS on Jeko-1 cells naturally expressing ROR1; remark: listed apart in the source

T1 sequence (Q01973 30-937): as the sequence (Q01973 30-937 limits assumed) above

B1: hz137G11D10-2.1 (antibody, human IgG1, kappa, V domains shown)
VH: QVQLQESGPGLVKPSQTLSLTCTVSGYSITSDYAWNWIRQHPGKGLEWIGYITYSASTSYNPSLKSRVTISRDTSKNQFSLKLSSVTAADTAVYYCARGAGTYYFDYWGQGTLVTVSS
VL: DIQMTQSPSSLSASVGDRVTITCITSTDIDEDMNWYQQKPGKAPKLLIYEDNSLRPGVPSRFSGSGYGTDFTLTISSLQPEDFATYYCLQTNNLPLTFGQGTKVEIKR
notes: Humanized, human IgG1/kappa
EC50 [1]: 0.01 nM | Top (MFI) [1]: 88000 MFI | Internalization EC50 (nM), NCI-H1975-ROR1 cells, pH-dependent endocytosis reagent, FACS [2]: 12.4 nM | EC50 [3]: 0.009 nM | Top (MFI) [3]: 29500 MFI | ADCC reporter gene assay EC50 (nM), PA-1 target cells, recombinant Jurkat effector cells [4]: 0.04 nM | EC50 [5]: 0.053 nM | Top (MFI) [5]: 227000 MFI | Kd [6]: 0.289 nM | koff [6]: 0.000792 s⁻¹ | kon [6]: 2.74e+06 M⁻¹ s⁻¹ | Internalization EC50 (nM), MDA-MB-468-ROR1 cells, pH-dependent endocytosis reagent, FACS [7]: 1.44 nM | Internalization EC50 (nM), NCI-H1993-ROR1 cells, pH-dependent endocytosis reagent, FACS [7]: 1.24 nM

B2: hz29H5D8-3.2 (antibody, human IgG1, kappa, V domains shown)
VH: QVQLVQSGAEVKKPGSSVKVSCKASGYTFTNYGISWVRQAPGQGLEWMGEIYPRSVNTYYSAKFKGRVTITADKSTSTAYMELSSLRSEDTAVYYCARHYYGSSLDYWGQGTLVTVSS
VL: DIQMTQSPSSLSASVGDRVTITCITSSDIEDDMNWYQQKPGKAPKLLISEGNSLRPGVPSRFSSSGYGTDFTFTISSLQPEDIATYYCLQSDNIFTFGQGTKVEIKR
notes: Humanized, human IgG1/kappa
EC50 [8]: 0.012 nM | Top (MFI) [8]: 89000 MFI | Internalization EC50 (nM), NCI-H1975-ROR1 cells, pH-dependent endocytosis reagent, FACS [2]: 5.19 nM | ADCC reporter gene assay EC50 (nM), PA-1 target cells, recombinant Jurkat effector cells [4]: 0.06 nM | Kd [6]: 0.197 nM | koff [6]: 0.000354 s⁻¹ | kon [6]: 1.79e+06 M⁻¹ s⁻¹ | Internalization EC50 (nM), MDA-MB-468-ROR1 cells, pH-dependent endocytosis reagent, FACS [7]: 0.92 nM | Internalization EC50 (nM), NCI-H1993-ROR1 cells, pH-dependent endocytosis reagent, FACS [7]: 1.18 nM | EC50 [9]: 0.087 nM | Top (MFI) [9]: 244000 MFI | EC50 [10]: 0.01 nM | Top (MFI) [10]: 30700 MFI

B3: UC-961 (antibody, V domains shown)
VH: QVQLQESGPGLVKPSQTLSLTCTVSGYAFTAYNIHWVRQAPGQGLEWMGSFDPYDGGSSYNQKFKDRLTISKDTSKNQVVLTMTNMDPVDTATYYCARGWYYFDYWGHGTLVTVSS
VL: DIVMTQTPLSLPVTPGEPASISCRASKSISKYLAWYQQKPGQAPRLLIYSGSTLQSGIPPRFSGSGYGTDFTLTINNIESEDAAYYFCQQHDESPYTFGEGTKVEIK
EC50 [1]: 0.019 nM | Top (MFI) [1]: 83200 MFI | Kd [11]: 20.6 nM | koff [11]: 0.0273 s⁻¹ | kon [11]: 1.33e+06 M⁻¹ s⁻¹ | EC50 [12]: 0.019 nM | Top (MFI) [12]: 83200 MFI | EC50 [8]: 0.021 nM | Top (MFI) [8]: 91700 MFI | EC50 [13]: 0.025 nM | Top (MFI) [13]: 26500 MFI | Internalization EC50 (nM), NCI-H1975-ROR1 cells, pH-dependent endocytosis reagent, FACS [2]: 17.7 nM | EC50 [3]: 0.025 nM | Top (MFI) [3]: 26500 MFI | ADCC reporter gene assay EC50 (nM), PA-1 target cells, recombinant Jurkat effector cells [4]: 0.27 nM | EC50 [14]: 0.024 nM | Top (MFI) [14]: 23900 MFI | EC50 [5]: 0.127 nM | Top (MFI) [5]: 232000 MFI | Kd [6]: 1.17 nM | koff [6]: 0.0018 s⁻¹ | kon [6]: 1.54e+06 M⁻¹ s⁻¹ | Internalization EC50 (nM), MDA-MB-468-ROR1 cells, pH-dependent endocytosis reagent, FACS [7]: 2.15 nM | Internalization EC50 (nM), NCI-H1993-ROR1 cells, pH-dependent endocytosis reagent, FACS [7]: 2.06 nM | EC50 [9]: 0.173 nM | Top (MFI) [9]: 235000 MFI | EC50 [15]: 0.127 nM | Top (MFI) [15]: 232000 MFI | EC50 [16]: 0.035 nM | Top (MFI) [16]: 75700 MFI | EC50 [10]: 0.025 nM | Top (MFI) [10]: 26500 MFI | EC50 [17]: 0.019 nM | Top (MFI) [17]: 66100 MFI

B4: hz135A2B10-1.1 (antibody, human IgG1, kappa, V domains shown)
VH: QVQLVESGGGLVQPGGSLRLSCAASGFAFSTYGMAWVRQAPGKGLEWVASIHKGGFSTYYPDNVKGRFTISRDNAKNSLYLQMNSLRAEDTAVYYCARHDWDGAMDYWGQGTLVTVSS
VL: DIQMTQSPSSLSASVGDRVTITCKASQDINSYLNWYQQKPGKAPKTLIYRANRLVDGVPSRFSGSGSGQDYTLTISSLQPEDFATYYCLQFDEFPYTFGQGTKVEIKR
notes: Humanized, human IgG1/kappa
EC50 [12]: 0.015 nM | Top (MFI) [12]: 88300 MFI | EC50 [13]: 0.022 nM | Top (MFI) [13]: 30300 MFI | Internalization EC50 (nM), NCI-H1975-ROR1 cells, pH-dependent endocytosis reagent, FACS [2]: 14.9 nM | ADCC reporter gene assay EC50 (nM), PA-1 target cells, recombinant Jurkat effector cells [4]: 0.13 nM | Kd [6]: 0.527 nM | koff [6]: 0.00051 s⁻¹ | kon [6]: 968000 M⁻¹ s⁻¹ | Internalization EC50 (nM), MDA-MB-468-ROR1 cells, pH-dependent endocytosis reagent, FACS [7]: 1.39 nM | Internalization EC50 (nM), NCI-H1993-ROR1 cells, pH-dependent endocytosis reagent, FACS [7]: 1.16 nM | EC50 [15]: 0.166 nM | Top (MFI) [15]: 250000 MFI

B5: hz135A2B10-1.3 (antibody, human IgG1, kappa, V domains shown)
VH: B4 VH with G44R, A75D, A97I
VL: B4 VL
notes: Humanized, human IgG1/kappa
EC50 [12]: 0.024 nM | Top (MFI) [12]: 86700 MFI | EC50 [13]: 0.047 nM | Top (MFI) [13]: 29900 MFI | Kd [6]: 0.575 nM | koff [6]: 0.000567 s⁻¹ | kon [6]: 985000 M⁻¹ s⁻¹ | EC50 [15]: 0.192 nM | Top (MFI) [15]: 249000 MFI
